One assay concerns the target T1, human PD-L2 (human, UniProt Q9BQ51 20-220, limits assumed).
T1 construct: Coated on plates in the direct ELISA; construct not described; also called programmed death ligand-2
T1 sequence (looked up): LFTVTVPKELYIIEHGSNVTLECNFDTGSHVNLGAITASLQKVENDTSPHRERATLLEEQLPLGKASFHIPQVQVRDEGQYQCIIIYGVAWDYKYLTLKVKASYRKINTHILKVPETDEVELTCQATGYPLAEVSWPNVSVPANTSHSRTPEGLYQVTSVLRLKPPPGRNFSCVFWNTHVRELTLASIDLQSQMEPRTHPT
The assay can be described thus: direct ELISA, human PD-L2 coated. The procedure: The procedures of the direct ELISA are described in the method below. […] The negative control was conducted using the same procedures as the anti-human PD-L1 antibodies, except that a blank buffer is used instead of the anti-human PD-L1 antibodies. The blank buffer is the buffer for diluting the anti-human PD-L1 antibodies. […] Thereby, 2C5, 3B8, 8C6, 10H6, 11G7, and 12H2 can eliminate the cross-reactivity of human PD-L2.
(§1) 3. Direct ELISA with rabbit monoclonal antibodies against human PD-L1 or PD-L2. Human PD-L1 and PD-L2 were coated on high binding ELISA plates at 4° C. overnight in 1×PBS, pH7.4. Coated plates were washed with Wash Buffer (1×PBS supplemented with 0.5% (V/V) Tween-20), and blocked with Blocking Buffer (1×PBS supplemented with 5% (W/V) skim milk). After blocking, plates were incubated with rabbit anti-PD-L1 monoclonal antibodies for 1 hour at room temperature, followed by washing and incubation with goat anti-rabbit IgG antibody conjugated with HRP. After a final wash, plated were developed using colorimetric reaction catalyzed by HRP to see if a monoclonal antibody can or cannot bind to PD-L1 and PD-L2.
For orientation: An ELISA detects its analyte on a solid surface through an enzyme-linked reagent.

The target of assay [1] is T2, human PD-L1 (human, UniProt Q9NZQ7 19-238, limits assumed).
T2 construct: also called programmed death ligand-1; CD274
Nature of the assay: direct ELISA, 10 ng/ml human PD-L1. The method, then: as §1

Assay [2] has as its target T2, human PD-L1. The assay can be described thus: sandwich ELISA (8C6 capture, 2C5 detection) compared with direct ELISA. The method, then: As compared to the direct ELISA with 8C6 shown in FIG. […] The sandwich ELISA enhances the sensitivity of human PD-L1 to 2C5, as compared to the direct ELISA.
as §1
5. Sandwich ELISA with rabbit monoclonal antibodies against human PD-L1. Capture antibodies were coated on high binding ELISA plates at 4° C. overnight in bicarbonate buffer. Coated plates were washed with Wash Buffer (1×PBS supplemented with 0.5% (V/V) Tween-20), and blocked with Blocking Buffer (1×PBS supplemented with 5% (W/V) skim milk). […]

T2 sequence (Q9NZQ7 19-238 limits assumed): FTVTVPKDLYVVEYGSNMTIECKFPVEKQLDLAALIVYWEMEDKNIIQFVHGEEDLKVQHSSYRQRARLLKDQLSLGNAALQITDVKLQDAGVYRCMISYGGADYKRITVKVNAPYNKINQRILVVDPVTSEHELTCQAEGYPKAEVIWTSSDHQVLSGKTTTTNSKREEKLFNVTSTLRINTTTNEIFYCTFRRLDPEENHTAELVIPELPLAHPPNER

B1: rabbit anti-human PD-L1 mAb 11G7 (antibody, V domains shown)
VH: QSVEESGGRLVTPGTPLTLTCTVSGIDLSSYDMTWVRQAPGKGLEYIGYISYFDKTYYATWAKGRFTISKTSTTVDLKMTSLTTEDTATYFCVRDRPDGITANLWGQGTLVTVSS
VL: AQLPTQTASPVSAAVGGTVTINCQSSHNVYSDNRLSWYQQKPGQPPKLLIYWASILASGVPSRFKGSGSGTQFTLTITDLECDDAATYYCAGGYSGNIYTFGGGTEVVVKG
notes: Recombinant rabbit IgG; Full heavy chain assembled from the Fab heavy chain entry followed by the Fc entry
B1: the binding result with human PD-L2 was “no binding (tested: concentrations up to 1000 ng/ml)”. The “OD450 at 10 ng/ml” value in the assay with human PD-L1 [1] is ~0.1 OD450.

B2: rabbit anti-human PD-L1 mAb 10H6 (antibody, V domains shown)
VH: QEQLVESGGGLVQPEGSLTLTCTASGFSFSSIYYLCWVRQAPGKGLEWIACIYGGNSDNTWYASWAKGRFTISKTSSTTVTLQMTSLTAADTATYFCARGYDIYGYAINLWGPGTLVTVSS
VL: DVVMTQTPASVEAAVGGTVTIKCQASQSIGGYLAWYQQKPGQPPKLLIYRASTLESGVASRFKGSGSGTEFTLTISDLECADAATYYCQCTYDSSNSRIYPNVFGGGTEVVVKG
notes: as for B1
On to B2, for which the binding result with human PD-L2 is reported as “no binding (tested: concentrations up to 1000 ng/ml)”.

B3: rabbit anti-human PD-L1 mAb 2C5 (antibody, V domains shown)
VH: QSVEESGGRLVTPGTPLTLTCTVSGFSLNNDNVGWVRQAPGKGLEWVGLIDILGSSYYASWAKGRFTISKTSNTVDLKITSPTIEDTATYFCAREGDGSFDPWGPGTLVTVSS
VL: AQVLTQTPSPVSAAVGGTVTINCQASQNVYNKKNLAWYQQKLGQPPKLLIYKASTLASGVPSRFSGSGSGTQFTLTISDLECDDAATYYCQGDYIGSRAFGGGTEVVVKG
notes: Recombinant rabbit IgG; Full heavy chain assembled from the Fab heavy chain entry followed by the Fc entry; Biotinylated when used as detection antibody in the sandwich ELISA
Turning to B3, in the assay with human PD-L2, the binding result is “no binding (tested: concentrations up to 1000 ng/ml)”. In the assay with human PD-L1 [2], the “fold sensitivity, sandwich ELISA against direct ELISA” value is ≥ 2 fold.

B4: rabbit anti-human PD-L1 mAb 12H2 (antibody, V domains shown)
VH: QEQLVESGGGLVQPEGSLTLTCTASGFSFSSSYYMCWVRQAPGKGLEWIACIWTSNGGRTYYANWAKGRFTISETSSTTVTLQMTSLTAADTATYFCARDDDTGSGYYNLWGPGTLVTVSS
VL: QIVMTQTASPVSAAVGGTVTINCQASESISSWLAWYQQKPGQPPKLLIYKASTLASGVPSRFKGSGSGTEFTLTISDLECADAATYYCQHGYYFGSVANTFGGGTEVVVKG
notes: as for B1
Consider B4, for which the binding result with human PD-L2 is “no binding (tested: concentrations up to 1000 ng/ml)”.

B5: rabbit anti-human PD-L1 mAb 3B8 (antibody, V domains shown)
VH: QSLEESGGDLVKPGASRTLTCTASGFSFSNNAYMCWVRQAPGKGLELIACIYSRYGNTHYASWAKGRFTISKTSSTTVTLQMTSLTAADTATYFCARGASGSSDYSFYFNLWGPGTLVTVSS
VL: AYDMTQTPASVEVAVGGTVTIKCQASQSISSWLAWYQQKPGQPPKLLIYDAYDLASGVPSRFKGSGSGTQFTLTISGVECTDAATYYCQQGYSSENIDNSFGGGTDVVVKG
notes: as for B3
Turning to B5, the binding result in the assay with human PD-L2 is “no binding (tested: concentrations up to 1000 ng/ml)”.

B6: rabbit anti-human PD-L1 mAb 8C6 (antibody, V domains shown)
VH: QSVEESGGRLVTPGTPLTLTCTASGFDISRHHMCWVRQAPGEGLEYIGFINPPGSAYYANWAKGRFTISRTSTTVALEMTSLTTEDTATYFCARWRFDDYGDLWGQGTLVTVSS
VL: AYDMTQTPASVEVAVGGTVTIKCQASESIASYLAWYQQKPGQPPKLLIYKASTLASGVSSRFRGSGSGTEFTLTISGVECADAATYYCQQGYSATNIDNAFGGGTEVVVKG
notes: as for B3
For B6, the binding result in the assay with human PD-L2 is “no binding (tested: concentrations up to 1000 ng/ml)”.
